For assay [1], the target named is T1, human PTK7 protein (extracellular sequence of human PTK7 with C-terminal 6×His tag) (human, UniProt Q13308 31-704).
T1 construct: extracellular domain; Expressed transiently in HEK293 cells; also called human PTK7-His; human PTK7-His protein
T1 sequence: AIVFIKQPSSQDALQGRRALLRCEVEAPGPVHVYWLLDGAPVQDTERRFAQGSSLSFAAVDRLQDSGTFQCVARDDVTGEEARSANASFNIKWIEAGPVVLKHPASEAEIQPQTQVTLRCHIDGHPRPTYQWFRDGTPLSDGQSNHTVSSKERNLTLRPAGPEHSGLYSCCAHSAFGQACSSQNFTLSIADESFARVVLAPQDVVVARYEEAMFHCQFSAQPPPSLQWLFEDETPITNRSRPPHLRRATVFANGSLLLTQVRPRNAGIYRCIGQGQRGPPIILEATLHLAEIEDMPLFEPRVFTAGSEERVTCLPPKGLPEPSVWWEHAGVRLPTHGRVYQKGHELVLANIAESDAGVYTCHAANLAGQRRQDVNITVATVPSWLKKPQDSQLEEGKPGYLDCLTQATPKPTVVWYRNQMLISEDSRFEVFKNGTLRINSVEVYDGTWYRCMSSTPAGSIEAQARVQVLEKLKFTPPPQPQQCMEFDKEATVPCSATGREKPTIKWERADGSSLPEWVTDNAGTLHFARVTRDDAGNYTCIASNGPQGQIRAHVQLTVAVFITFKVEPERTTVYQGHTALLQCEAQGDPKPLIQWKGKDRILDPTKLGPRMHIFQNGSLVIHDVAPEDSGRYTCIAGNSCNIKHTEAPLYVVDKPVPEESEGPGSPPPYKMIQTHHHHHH
Briefly: ELISA, coated human PTK7 protein 1 µg/ml. Here is the method:
Original data was imported into software for nonlinear curve fitting, and EC₅₀ of binding of each antibody to human PTK7 and monkey PTK7 was calculated, respectively. As shown in Table 1 and FIGS. 1A-1B, the screened antibodies could be bound to the human and monkey PTK7 proteins with affinity higher than that of the control antibody Hu24.
On the technique in general: ELISA stands for enzyme-linked immunosorbent assay.

The target in assay [2] is T2, human PTK7 on cells (tumor cells endogenously expressing PTK7); CHO-hPTK7, CHO-S-hPTK7 and 293T-hPTK7 … (human, UniProt Q13308 31-1070).
T2 construct: whole, on cells; The cell line of each value is named under assay; also called H1299; H358
T2 sequence (looked up): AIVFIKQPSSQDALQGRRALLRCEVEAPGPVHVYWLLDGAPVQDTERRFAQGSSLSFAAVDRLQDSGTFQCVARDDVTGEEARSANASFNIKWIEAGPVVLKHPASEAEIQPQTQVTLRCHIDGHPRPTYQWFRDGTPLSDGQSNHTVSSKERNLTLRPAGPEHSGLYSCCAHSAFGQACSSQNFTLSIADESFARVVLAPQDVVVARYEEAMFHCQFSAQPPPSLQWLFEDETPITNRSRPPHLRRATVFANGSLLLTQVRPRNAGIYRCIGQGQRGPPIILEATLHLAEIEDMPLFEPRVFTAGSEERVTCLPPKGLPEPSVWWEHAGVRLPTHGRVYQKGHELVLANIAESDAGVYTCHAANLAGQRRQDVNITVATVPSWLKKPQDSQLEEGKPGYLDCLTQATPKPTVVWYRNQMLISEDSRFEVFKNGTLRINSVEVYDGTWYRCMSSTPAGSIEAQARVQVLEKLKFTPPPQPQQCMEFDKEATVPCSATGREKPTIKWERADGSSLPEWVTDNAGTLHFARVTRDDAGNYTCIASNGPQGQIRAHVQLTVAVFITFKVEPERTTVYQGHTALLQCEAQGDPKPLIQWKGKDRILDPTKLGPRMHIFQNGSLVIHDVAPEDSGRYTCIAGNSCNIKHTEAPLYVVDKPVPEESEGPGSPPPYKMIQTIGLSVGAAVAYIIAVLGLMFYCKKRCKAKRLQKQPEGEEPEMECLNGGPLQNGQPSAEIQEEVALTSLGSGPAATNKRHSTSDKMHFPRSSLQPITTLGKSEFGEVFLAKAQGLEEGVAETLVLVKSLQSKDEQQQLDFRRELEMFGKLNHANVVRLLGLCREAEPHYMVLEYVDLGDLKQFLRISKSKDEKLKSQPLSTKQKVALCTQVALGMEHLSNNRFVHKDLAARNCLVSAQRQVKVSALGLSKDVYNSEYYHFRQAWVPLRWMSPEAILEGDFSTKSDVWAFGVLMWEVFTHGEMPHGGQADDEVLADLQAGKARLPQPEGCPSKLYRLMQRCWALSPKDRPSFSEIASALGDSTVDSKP
The experiment in a line: flow cytometry on H1299 cells endogenously expressing PTK7. A general note: In flow cytometry, cells or beads pass a laser one at a time.

Assay [3] concerns the target T2, human PTK7 on cells (tumor cells …). Briefly: competition flow cytometry on 293T-hPTK7 cells, streptavidin-PE; competitor: biotin-labelled 64A10HZ.
Assay [4] has the same target. Briefly: competition flow cytometry on 293T-hPTK7 cells, streptavidin-PE; competitor: biotin-labelled 101A6HZ.
Assay [5] has as its target T1, human PTK7 protein (extracellular …). Briefly: competition ELISA on coated human PTK7 protein; competitor: biotin-labelled 101A6HZ at a fixed concentration. The procedure: The human PTK7 protein was diluted to reach 1 μg/ml by using the CBS coating liquid, coated by a 96-well microtiter plate at a density of 100 μl/well, and stood overnight at 4° C.; and after the plate was washed and blocked, the biotin-labeled antibody and the to-be-detected antibody were added, and incubated for 2 h at room temperature. After the plate was washed, the secondary antibody was added for incubation, and finally was subjected to color development, then the reaction was terminated, and the absorbance at OD₄₅₀ nm was read by the microplate reader. The original data was imported into software for nonlinear curve fitting (four parameters).

B1: Hu24 (PTK7 control antibody, taken from Hu24 in the Patent CN201580030255) (antibody)
chain 1: QVQLVQSGPEVKKPGASVKVSCKASGYTFTDYAVHWVRQAPGKRLEWIGVISTYNDYTYNNQDFKGRVTMTRDTSASTAYMELSRLRSEDTAVYYCARGNSYFYALDYWGQGTSVTVSS
chain 2: EIVLTQSPATLSLSPGERATLSCRASESVDSYGKSFMHWYQQKPGQAPRLLIYRASNLESGIPARFSGSGSGTDFTLTISSLEPEDFAVYYCQQSNEDPWTFGGGTKLEIK
What is called EC50 is the concentration that produces a half-maximal response. A high value points to weaker potency. Consider B1, for which the concentration for a half-maximal effect (EC50) came out at 0.0457 µg/mL in assay [1] and 0.293 µg/mL in assay [2].

B2: 64A10HZ (anti-human PTK7 humanized antibody) (antibody, human IgG1, kappa, V domains shown)
VH: QVQLQESGPGLVKPSETLSLTCTVSGFSLTSYGVYWVRQPPGKGPEWLGVIWTSGNTNYNPSLKSRLTISKDNSKNQVSLKLSSVTAADTAVYYCVKHDGGNYVGVMNYWGQGTLVTVSS
VL: EIVMTQSPDFQSVTPKEKVTITCRASQSISDYLHWYQQKPDQSPKLLIKYASQSISGVPSRFSGSGSGSDFTLTINSLEAEDAATYYCQNGHSFPPTFGQGTKLEIKR
notes: Human IgG1 heavy chain constant region and human Kappa light chain constant region; expressed in CHO-S cells
Turning to B2, in assay [3], the “IC50 (read off the curve)” value is roughly 300 ng/mL.

B3: 101A6HZ (anti-human PTK7 humanized antibody) (antibody, human IgG1, kappa)
heavy: not shown
light: DIVMTQSPDSLAVSLGERATINCKASQDVGSAVIWYQQKPGQSPKLLIYWASTRHTGVPDRFSGSGSGTDFTLTISSLQAEDVAVYYCQQYSSYPLTFGQGTKLEIKRTVAAPSVFIFPPSDEQLKSGTASVVCLLNNFYPREAKVQWKVDNALQSGNSQESVTEQDSKDSTYSLSSTLTLSKADYEKHKVYACEVTHQGLSSPVTKSFNRGEC
As to B3, the “IC50 (read off the curve)” value was roughly 1000 ng/mL in assay [4] and roughly 80 ng/mL in assay [5].
